The text below walks through data of the nanobody polyreactivity screen of Harvey et al. (2022).

The series can be described thus: yeast display, Sf9 membrane polyspecificity reagent, FACS + sequencing; frameworks hold sequencing errors. In short, it runs like this:
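Genes from sorted yeast were amplified by colony PCR, read by MiSeq 2 × 250 sequencing and filtered on CDR length. These cells carried a synthetic nanobody library in Saccharomyces cerevisiae BJ5465 and were sorted by FACS into low and high (top ~1%) gates on anti-HA and streptavidin fluorescence. Polyreactivity is labelled according to the gate of origin.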
Regarding “QVQLVESGGGLVQAGGSLRLSCAASGSTFDYNTMGWYRQAPGKERELVAVITYSGGRTYYADSVKGRFTISRDNAKNTVYLQMNSLKPEDTAVYYCNARYGYPLGHSIYYYWGQGTQVTVSS”, the “polyreactivity (PSR sort gate)” value is given as “low polyreactivity”.
For the sequence “QVQLVESGGGLVQAGGSLRLSCAASGSTFDYYAMGWYRQAPGKERELVAAISRTGGRTYYADSVKGRFTISRDNAKNTVYLQMNSLKPEDTAVYYCNAVTRIGGGDYDYWGQGTQVTGSS”, the “polyreactivity (PSR sort gate)” value is “low polyreactivity”.
Turning to “QVQLVESGGGLVQAGGSLRLSCAASGSTFDYYAMVWYRQAPGKEREFVAAISYSGGSTYYADSVKGRFTISRDNAKNTVYLQMNSLKPEDTAVYYCAAEGYYYNLYYWGQGTEVTVSS”, the “polyreactivity (PSR sort gate)” value is listed as “high polyreactivity”.
In the case of “QVQLVESGGGLVQAGGSLRLSCAASGSTFDYYARGGYRQAPGKERELVAAISRTGGRTYYADSVKGRFTISRDNAKNTVNLQMNSLKPEDTAVYNCNAVTRIGGGDYDYWGQGTQVTVSS” it was “low polyreactivity”; in that of “QVQLVESGGGLVQAGGSLRLSCAASGSTFDYYDRGWFRQAPGKERELVAAISSGGDSTYYADSVKGRFTISRDNEKNTVYLQMNSLKPEDTAVYYCAAAVYYGQSVWYYYWGQGTQVTVSS”, “high polyreactivity”.
Consider “QVQLVESGGGLVQAGGSLRLSCAASGSTFDYYTIGWYRQAPGKERELVAAISSSGGSTYYADSVKGRFTISRDNAKNTVYLQMNSLKPEDTAVYYCAADPSPYGDEYDYWGQGTQVTVSS”, for which the “polyreactivity (PSR sort gate)” value is “low polyreactivity”.
To “QVQLVESGGGLVQAGGSLRLSCAASGSTFDYYTMGWYRQAPGKERELVAAISYSGSRTYYADSVKGRFTISRDNAKNTVYLQMNSLKPEDTAVYYCARVASSVWYKQEYSYYNFDYWGQGTQVTVSS” belongs “high polyreactivity”; to “QVQLVESGGGLVQAGGSLRLSCAASGSTFEANAMGWYRQAPGKERELVAVITWTGGSTYYADSVKGRFTISRDNAKNTVYLQMNSLKPEDTAVDYCAADGVVPGRFFWPAHEYDYWGQGTQVTVSS”, “low polyreactivity”; to “QVQLVESGGGLVQAGGSLRLSCAASGSTFEGNAMVWYRPAPGKERELVAAISSGGRTYYADSVKGRFTISRDNAKNTVYLQMNSLKPEDTAVYYCAAYVRRGFDWGQGTQVTVSS”, “high polyreactivity”.
As to “QVQLVESGGGLVQAGGSLRLSCAASGSTFEQNAMGWYRQAPGKEREFVAAITGSGGSTYYADSVKGRFTISRDNAKNTVYLQMNSLKPEDTAVYYCAADIQDGLYWWDIYDYWGQGTQVTVSS”, the “polyreactivity (PSR sort gate)” value is “low polyreactivity”.
To “QVQLVESGGGLVQAGGSLRLSCAASGSTFEQYAMGWYRQAPGKERELVASISTGGGRTYYADSVKGRFTISRDNAKNTVFLQMNSLKPEDTAVYYCNKRYRGYKTGYSRYDYWGQGTQVTVSS” belongs “low polyreactivity”; to “QVQLVESGGGLVQAGGSLRLSCAASGSTFERYAMGWYRPAPGKERELVAAISAIGDSTYYADSVKGRFTISRDNAKNTVYLQMNSLKPEDTAVYYCAARYTRYHIGRGYYYWGQGTQVTVSS”, “high polyreactivity”.
In the case of “QVQLVESGGGLVQAGGSLRLSCAASGSTFESNAMGWYRQAPGKERELVAAISSSGGSTYYADSVKGRFTISRDNAKNTVYLQMNSLKPEDTAVYYCNKGGLSDYDYWGQGTQVTVSS”, the “polyreactivity (PSR sort gate)” value is “high polyreactivity”.
Take “QVQLVESGGGLVQAGGSLRLSCAASGSTFESNAMGWYRQAPGKERELVAAISTSGGSTYYADSVKGRFTISRDNAKNTVYLQMNSLKPEDKAVYYCNAYPEAVRWKYNYWGQGTQVTVSS”: the “polyreactivity (PSR sort gate)” value was “low polyreactivity”.
With “QVQLVESGGGLVQAGGSLRLSCAASGSTFESNTMGWYRQAPGKERELVAASSYSGGRTYYADSVKGRFTISRVNAKNTVYFQMNILKPEDTAVYSCAARWSVSYRMYYWGQGTQVTVSS”, the “polyreactivity (PSR sort gate)” value is “high polyreactivity”.
In the case of “QVQLVESGGGLVQAGGSLRLSCAASGSTFETYAMGLYRKAPGKDRELVAAITWAGDTSYADSVKGRFTISRDNAKHTVYLQMNSLKPEDTAVYYCAKDNGRAYFGRSPYDYWGQGTQVTVTS” it was “low polyreactivity”; in that of “QVQLVESGGGLVQAGGSLRLSCAASGSTFEVYAMGWYRQAPGKERELVAVINVSDGSTYYADSVKGRFTISRDNAKNTVYLQMNSLKPEDTAVYYCAAYLYNRPYQLTGYYDGYGYWGQGTQVTVSS”, “low polyreactivity”.
To “QVQLVESGGGLVQAGGSLRLSCAASGSTFEVYTMGWSIQSPGKVRELVATISGDDGSTYYADSVKGRFTISRDNAKNTVYLQMNSLKPEDTAVYYCAADYGGFPNYYSTGDYWGQGTQVTVSS” belongs “low polyreactivity”; to “QVQLVESGGGLVQAGGSLRLSCAASGSTFEWNAMGWYRQAPGKERELVAAISWRTTRTYYADSVKGRFTISRDNAKNTVYLQMNSLKPEDTAVYYCAVVTSPYYGGYEYWGQGTQVTVSS”, “high polyreactivity”.
As to “QVQLVESGGGLVQAGGSLRLSCAASGSTFEYNAMGWYRQAPGKERELLADISYSDGSTYYADSVKGRFTISRDNAMNTVYLQMNSLKPEDTGVYYCAAYSGYGGVSMYYWGQGTHVTVSS”, the “polyreactivity (PSR sort gate)” value was “low polyreactivity”.
In the case of “QVQLVESGGGLVQAGGSLRLSCAASGSTFEYNAMGWYRQAPGKERELVASSTNYADSGKGRFTISRDNAKNTVYLQMNSLKPEDTAVYYCAREQGVNRNHDYWGQGTQVTVSS”, the “polyreactivity (PSR sort gate)” value is on record as “low polyreactivity”.
Take “QVQLVESGGGLVQAGGSLRLSCAASGSTFEYNAMGWYRQAPGKERELVASSTNYADSVKGRFTISRDNAKNTVYLQMNSLIPEDTAVYYCAREQGVNRNHDYWGQGTQVTVSS”: the “polyreactivity (PSR sort gate)” value is listed as “low polyreactivity”.
In the case of “QVQLVESGGGLVQAGGSLRLSCAASGSTFEYNAMGWYRQAPGKERELVASSTNYADSVKGRFTISRDNAKNTVYLQMNSLKPEDTAVYYCAKTYWYPYGYWGQGTQVTVSS” it was “low polyreactivity”.
In the case of “QVQLVESGGGLVQAGGSLRLSCAASGSTFEYNVMGWYRQAPGKERELVAAITSGASTNYADSVKGRFTISRDNAKNSVYLQMNSLKPEDTAVYYCAAGESGSFFIYYYWGQGTQVTVSS” it was “low polyreactivity”.
To “QVQLVESGGGLVQAGGSLRLSCAASGSTFEYYAMGWDRQAPGKERELVAAISITGGSSYYADSVKGRFTISRDNAKNTVYLQMNSLKPEDTAVCYCAASVPLARRLGYPWRRAGYNYWGQGTQVTVSS” belongs “high polyreactivity”; to “QVQLVESGGGLVQAGGSLRLSCAASGSTFEYYAMGWYRQAPGKERELVAAISTAGSTYYADSVKGRFTISRDNAKNTVYLQMNSLKQEDTAVYYCAVDPSPRSYYNYYWGQGTQVTVSS”, “high polyreactivity”.
Take “QVQLVESGGGLVQAGGSLRLSCAASGSTFEYYAMGWYRQAPGKERELVAGISTGGSTNYADSVKGRFTISRDNAKNTVYVQMNSLKTEDSAVYYCKRDWALYVFCRHYHAYYSWGQRTQVTVSS”: the “polyreactivity (PSR sort gate)” value is recorded as “low polyreactivity”.
In the case of “QVQLVESGGGLVQAGGSLRLSCAASGSTFEYYAMGWYRQAPGKERELVATISIDGRTNYADSVKGRFTISRDNAKYTVYLQMNSLKPEDTAVYYCAASDLTAISSKYDYWGQGTQVTVSS” it was “low polyreactivity”; in that of “QVQLVESGGGLVQAGGSLRLSCAASGSTFFDYAMGWYRQAPGKERELVAAISRSGDTNYADSVKGRFTMSRDNAKNTVYLHMNSLKPEDTAVYYCAKYWAYRRHWVGFYYWGQGTLVTVSS”, “low polyreactivity”; in that of “QVQLVESGGGLVQAGGSLRLSCAASGSTFFEYAMGWYRKAPGKEREFVAGISWSGGITYYADSVKGRFTISRDNAKNTVYLQMNSLKPEDTAVYYCATAGGDWYGVDYWGQGTQVTVSS”, “low polyreactivity”.
